Measured values taken from US20060281899A1, “Mutants of biotin binding protein” (priority 2002, published 2006).
Where “and” joins values, the source holds several entries; their conditions need not be identical. Equal entries are not always repeated. Where two headings read alike, the source gives them in different places.

Tests used:
[1] = IAsys optical biosensor, affinity of avidin and avidin mutants towards 2-iminobiotin; assay type: binding
Description: (§1) Reversibility of biotin binding was measured for avidin and the mutants with an IAsys optical biosensor (Laitinen, O. H. et al., FEBS Lett 461 (1999), 52-8). Protein samples were allowed to bind to a biotin-aminosilane cuvette in PBS containing 1 M NaCl. After the equilibrium was reached, biotin-containing buffer was added and the dissociation of the proteins was monitored. The affinities of the proteins towards 2-iminobiotin were determined with an IAsys optical biosensor (Marttila, A. T. et al. FEBS Lett 441 (1998), 313-7). Biotin-binding activity of the mutants Avd-ci and Avd-ccci after heat treatment was studied with a microtiter plate assay. Protein samples, 5 μg/ml concentration in PBS, were heated for various time periods at 99.9° C. and then chilled on ice. The samples were transferred to a Nunc Maxisorp-plate and incubated at 37° C. for 2 h. The wells were washed three times with PBS-Tween (0.05% v/v). After that the wells were blocked with PBS containing 1% BSA at 37° C. for 30 minutes and washed again with PBS-Tween. Next, biotinylated alkaline phosphatase (Sigma) in PBS, 1% BSA was added and incubated at 37° C. for one hour. Once again, the wells were washed with PBS-Tween and the PNPP substrate in DEA buffer (1 mg/ml) was applied to the wells. The absorbances at 405 nm were measured after incubation for 45 minutes.

[2] = 2-iminobiotin surface; from Nordlund 2003; read-out: Kd detected from the equilibrium response data; cited from earlier work
[3] = Differential scanning calorimetry of the avidin mutants; assay type: physicochemical; details: for Tm: DSC, 100 mM Na-phosphate buffer pH 7.4
Description: In order to study the thermal stability of the purified avidin mutants, they were subjected to analysis by differential scanning calorimetry. A Nano II differential scanning calorimeter (Calorimetric Science Corporation, Provo, Utah) was used. […] The reference cell was filled with the same buffer that the sample proteins were dissolved in (100 mM Na-phosphate buffer pH 7.4). The thermograms were recorded as a function of temperature, between 25 and 130° C. at a temperature scan rate of 55.6° C./h. The baselines were subtracted and the transition midpoints (Tm) of the samples were calculated using proprietary software provided by the instrument manufacturer.

[4] = cited from earlier work; for ΔTm: change in Tm upon biotin addition, previously published values; for DSC Tm (+biotin) / DSC Tm(−biotin): previously published (Nordlund 2003; Gonzalez 1999)
[5] = tested on: biotinylated alkaline phosphatase; assay: Microtiter plate assay, biotin-binding activity after heat treatment at 99.9° C.; assay type: physicochemical; details: 99.9° C. for various time periods
Description: as §1, with “After that the wells were blocked with PBS containing 1% BSA at 37° C. for 30 minutes and washed again with PBS-Tween. Next, biotinylated alkaline phosphatase (Sigma) in PBS, 1% BSA was added and incubated at 37° C. for one hour. Once again, the wells were washed with PBS-Tween and the PNPP substrate in DEA buffer (1 mg/ml) was applied to the wells.” left out
Biotin-binding activity of the proteins after heat treatment was studied with a microtiter plate assay (Nordlund, H. R., Laitinen, O. H., Uotila, S. T., Nyholm, T., Hytönen, V. P., Slotte, J. P. & Kulomaa, M. S. (2003) J. Biol. Chem. 278, 2479-2483). […] The absorbencies at 405 nm were measured after incubation for 45 minutes.

[6] = Microparticle analysis, BF523-biotin binding of protein-coated particles before and after 95° C.; assay type: physicochemical; details: 30 minutes at 95° C., BF523-biotin added after treatment (iv)
Description: Before the analysis, 3.22 μm microparticles with COOH-group/0.852 nm2 (Bangs laboratories, Fishers, Ind., USA) were covalently coated with biotin-binding proteins. Microparticles (1*108 pcs) were washed twice with H20 by sequential centrifuging (5000 g; 3 min) and aspiration, and resuspended in 200 μl PB buffer (50 mM NaH2PO4-HCl, pH 3.0). A solution of biotin binding protein (50 μl, 1 mg/ml or 3 mg/ml, 50 mM Na-acetate pH 4.0) was added while vortexing. The suspension was incubated for 1 h (500 rpm; 23° C.). Particles were washed with PB and with MES buffer (50 mM, pH 5.5) and suspended in MES buffer (200 μl). […] After the last wash particles were suspended in 100 μl volume and concentration of particles was determined with Multisizer 3 Coulter Counter (Beckman Coulter, Fullerton, Calif., USA). […]
Microparticles (5*106 pcs) were suspended in 900 μl of assay buffer and aliquoted in […] PCR-tubes (i-v; 180 μl/aliquot). […] The samples were measured with ArcDia TPX PlateReader (ArcDia Ltd.) (Soini, E., Meltola, N. J., Soini, A. E., Soukka, J., Soini, J. T. & Hanninen, P. E. (2000) Biochem. Soc. Trans. 28, 70-74). […]
The fluorescence emission efficiencies of the BF523-biotin conjugate (200 nM) was determined before and after the incubation (30 min) at 95° C. […]

[7] = + biotin, difference in Tm compared to wt avidin + biotin
[8] = + biotin (biotin:avidin molar ratio 3:1)
[9] = without biotin, difference in Tm compared to wt avidin

Row | Kd [1] [µM] | Substance | Kd [2] [µM] | ΔTm [3, 7] [°C] | Tm [3, 8] [°C] | Tm ([3]; without biotin) [°C] | ΔTm [3, 9] [°C] | ΔTm [4] [°C] | DSC Tm (+biotin) [4] [°C] | DSC Tm(−biotin) [4] | biotin-binding activity after heat treatment [5] | original signal after heat treatment of coated particles [6] [%] | ΔH of unfolding ([4]; previously published (Gonzalez 1999)) [kJ/mol]
1 | 0.094 | Avd-cci: Avidin mutant D86C, I106C with four intermonomeric disulphide bridges (1-4 and 2-3) | 0.094 | −0.7 | 117.5 ± 0.1 | 74.4 ± 0.1 | −11.1 | 43.1 | 117.5 ± 0.1 | 74.4 ± 0.1 °C |  |  | 
2 | 0.19 | Avd-nc: Cysteineless avidin mutant C4A, C83Y; intramonomeric disulphide bridges removed | 0.025 | 0.3 | 118.5 ± 0.1 | 76.4 ± 0.4 |  | 42.1 | 118.5 ± 0.1 | 76.4 ± 0.4 °C |  |  | 
3 | 0.085 | Avd-ci: Avidin mutant I117C with two intermonomeric disulphide bridges (subunits 1-3 and 2-4) | 0.19 | 6.5 | 124.7 ± 0.5 | 98.6 ± 0.1 | 13.1 | 26.1 | 124.7 ± 0.5 | 98.6 °C and 98.6 ± 0.1 °C | remained active, in the sense of binding biotin, longer than the wild-type avidin | 35 | 
4 |  | Streptavidin: Bacterial streptavidin (SEQ ID NO 2), literature values [reference compound] |  |  |  |  |  | 36.7 | 112.2 | 75.5 °C |  |  | 629.0
